Experimental data: patent US20150010525A1, “Catalytic Tagging System to Study Macro-Molecular Interactions Using Engineered Ubiquitin Ligase and Ubiquitin-Like Proteins to Facilitate Substrate Identification” (THE REGENTS OF THE UNIVERSITY OF CALIFORNIA, priority 2012, published 2015)
Values belong to the molecule of their own block, whether it stands above or below them.

Assays:
cIAP1 [1] = target: T1, cIAP1 (Homo sapiens, UniProt P61081+Q13490); assay: SILAC mass spectrometry screen for cIAP1 substrates with NEDDylator^cIAP1 in apoptotic Jurkat cell lysate; type: biochemical; details: Light lysate with NEDDylator^cIAP1, Heavy lysate with Ubc12
T1 construct: cIAP1(ΔR) (residues 1-555); GST (N, cleaved yes); made in house; host or cells: E. coli BL21 (DE3)
T1 sequence (Q13490+P61081 fused): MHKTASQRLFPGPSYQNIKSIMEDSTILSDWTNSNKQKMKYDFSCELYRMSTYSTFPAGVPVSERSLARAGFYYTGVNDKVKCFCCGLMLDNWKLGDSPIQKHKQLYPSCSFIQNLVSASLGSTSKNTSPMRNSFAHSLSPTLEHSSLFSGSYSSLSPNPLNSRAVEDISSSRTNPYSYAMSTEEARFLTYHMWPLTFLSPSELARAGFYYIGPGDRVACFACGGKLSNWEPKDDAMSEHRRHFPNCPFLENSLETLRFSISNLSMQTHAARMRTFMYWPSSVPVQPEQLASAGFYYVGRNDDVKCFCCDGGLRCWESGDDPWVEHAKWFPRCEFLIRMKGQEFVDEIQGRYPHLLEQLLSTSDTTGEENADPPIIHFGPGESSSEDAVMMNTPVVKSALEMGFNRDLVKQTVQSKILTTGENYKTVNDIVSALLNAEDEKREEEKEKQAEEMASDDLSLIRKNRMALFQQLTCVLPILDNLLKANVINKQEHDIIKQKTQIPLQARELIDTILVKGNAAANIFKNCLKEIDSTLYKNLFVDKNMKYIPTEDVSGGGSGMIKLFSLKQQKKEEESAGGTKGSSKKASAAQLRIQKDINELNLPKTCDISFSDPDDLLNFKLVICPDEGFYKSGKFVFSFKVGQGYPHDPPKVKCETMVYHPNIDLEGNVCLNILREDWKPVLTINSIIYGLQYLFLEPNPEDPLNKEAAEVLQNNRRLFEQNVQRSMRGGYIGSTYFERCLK
Description: Jurkat cells were grown in media containing either light or heavy isotopes of lysine and arginine and induced to undergo apoptosis with STS. Light cell extracts were incubated with the respective catalytic tagging system for each of the two IAPs and the heavy extracts labeled only with the wild-type NEDD8 E2, Ubc12. […] 100 mg ^13C6^15N2 L-Lys.2HCl and 86 mg ^13C6 L-Arg.HCl (Cambridge Isotope) were added to the same amount of medium to generate the “Heavy” medium. Jurkat cells were cultured separately in “Light” or “Heavy” medium for 7 days to allow for thorough isotope incorporation. For IAP substrate identification, 400 million cells were treated with 2 μM STS for 4 hours, harvested, lysed in M-PER mammalian protein extraction buffer (Thermo/Pierce) in the presence of protease inhibitors (100× ProteoBlock cocktail, Fermentas) and mixed with cell lysate prepared from 400 million untreated cells. […] Purified NEDDylated proteins were trypsinized and analyzed with tandem mass spectrometry (LC-MS/MS).
(§1) For SILAC experiments, Jurkat cells were cultured separately in “Light” (supplemented with regular Lys and Arg) or “Heavy” (supplemented with ^13C6^15N2 Lys and ^13C6 Arg) medium for 7 days to allow for thorough isotope incorporation. Apoptotic “Light” and “Heavy” cell extracts were prepared individually. The lysates were cleared by spinning and then diluted in 50 mM HEPES pH 7.4, 150 mM NaCl to 5 mg/ml and supplemented with 5 mM ATP, 10 mM MgCl2. Endogenous NEDD8 E1 is cell lysate was used to catalyze the reaction. HB-NEDD8 was added to both lysate at mass ratio 1:500; the catalytic tagging system was added to the “Light” lysate at mass ratio 1:1000. Equal molar of Ubc12 was added to the “Heavy” lysate. […] NEDDylated proteins were separated by one-dimensional SDS-PAGE, and trypsinized for LC-MS/MS analysis.
For liquid chromatography—Tandem mass spectrometry (LC-MS/MS) analysis, the tryptic peptides were first desalted and concentrated with a C18 Ziptip (Millipore). LC-MS/MS was carried out by reverse phase LC interfaced with a LTQ-Orbitrap (ThermoFisher Scientific) hybrid mass spectrometer. A nanoflow HPLC (NanoAcquity UPLC system, Waters Corporation) was equipped with a trap column (180 μm×20 mm, 5 μm SymmetryC18, from Waters) and an analytical column (100 μm×100 mm, 1.7 μm BEH130C18, from Waters). Peptides were eluted over a linear gradient from 2% solvent A (0.1% formic acid in water) to 35% solvent B (0.1% formic acid in acetonitrile) at 350 nL/min over 35 min. MS and MS/MS spectra were acquired in a data-dependent mode with MS spectra acquired in the Orbitrap at 30,000 resolving power and 6 CID MS/MS spectra acquired per MS in the LTQ linear ion trap. Dynamic exclusion was set at 90 seconds to prevent repeated MS/MS on the same precursor ion.
The identified peptides were searched against a random decoy protein database for evaluating the false positive rates. […] The decoy peptides were removed from the data. Protein IDs were assigned only when at least two unique peptides were identified from the same protein. For SILAC experiment, Light/Heavy ratios for the identified peptides were calculated, using ProteinProspector. The media Light/Heavy ratios of all the peptides identified for each protein were used to represent the Light/Heavy ratio of the protein.

XIAP [2] = target: T2, XIAP (Homo sapiens, UniProt P61081+P98170); assay: SILAC mass spectrometry screen for XIAP substrates with NEDDylator^XIAP in apoptotic Jurkat cell lysate; type: biochemical; details: Heavy lysate with Ubc12
T2 construct: The N-terminus (residues 1-434) of XIAP was then fused via a flexible Gly-Gly-Ser-Gly linker to the NEDD8 E2, Ubc12; GST (N, cleaved yes); made in house; host or cells: E. coli BL21 (DE3)
T2 sequence (P98170+P61081 fused): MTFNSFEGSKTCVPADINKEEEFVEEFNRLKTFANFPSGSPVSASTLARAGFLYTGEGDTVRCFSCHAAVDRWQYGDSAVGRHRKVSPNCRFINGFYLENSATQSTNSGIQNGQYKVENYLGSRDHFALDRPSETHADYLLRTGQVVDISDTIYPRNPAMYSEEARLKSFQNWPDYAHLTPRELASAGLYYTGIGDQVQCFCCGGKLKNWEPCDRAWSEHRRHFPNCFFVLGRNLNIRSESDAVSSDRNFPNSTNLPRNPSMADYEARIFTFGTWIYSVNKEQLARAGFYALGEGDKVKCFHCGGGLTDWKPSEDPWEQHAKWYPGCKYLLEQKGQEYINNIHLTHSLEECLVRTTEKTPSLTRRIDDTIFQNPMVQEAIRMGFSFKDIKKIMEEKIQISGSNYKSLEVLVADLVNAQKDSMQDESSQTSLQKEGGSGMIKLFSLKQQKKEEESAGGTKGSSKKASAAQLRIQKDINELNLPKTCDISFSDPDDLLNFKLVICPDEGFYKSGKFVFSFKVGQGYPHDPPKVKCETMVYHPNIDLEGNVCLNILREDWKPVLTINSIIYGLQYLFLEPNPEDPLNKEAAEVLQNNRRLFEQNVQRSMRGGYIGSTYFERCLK
Description: Jurkat cells were grown in media containing either light or heavy isotopes of lysine and arginine and induced to undergo apoptosis with STS. Light cell extracts were incubated with the respective catalytic tagging system for each of the two IAPs and the heavy extracts labeled only with the wild-type NEDD8 E2, Ubc12. 64 mg regular L-Lys and 83.6 mg L-Arg.HCl were added to 1 liter RPMI-1640 minus L-Lys and L-Arg (Thermo/Pierce), 10% fetal bovine serum (FBS) to generate “Light” medium. 100 mg ^13C6^15N2 L-Lys.2HCl and 86 mg ^13C6 L-Arg.HCl (Cambridge Isotope) were added to the same amount of medium to generate the “Heavy” medium. Jurkat cells were cultured separately in “Light” or “Heavy” medium for 7 days to allow for thorough isotope incorporation. For IAP substrate identification, 400 million cells were treated with 2 μM STS for 4 hours, harvested, lysed in M-PER mammalian protein extraction buffer (Thermo/Pierce) in the presence of protease inhibitors (100× ProteoBlock cocktail, Fermentas) and mixed with cell lysate prepared from 400 million untreated cells. The NEDDylated proteins were isolated under denaturing conditions via the HB-NEDD8 tag using a tandem affinity pull down procedure (Tagwerker et al., Mol Cell Proteomics 5:737-748 (2006)) (FIG. 11). Purified NEDDylated proteins were trypsinized and analyzed with tandem mass spectrometry (LC-MS/MS).
as §1
For liquid chromatography—Tandem mass spectrometry (LC-MS/MS) analysis, the tryptic peptides were first desalted and concentrated with a C18 Ziptip (Millipore). LC-MS/MS was carried out by reverse phase LC interfaced with a LTQ-Orbitrap (ThermoFisher Scientific) hybrid mass spectrometer. A nanoflow HPLC (NanoAcquity UPLC system, Waters Corporation) was equipped with a trap column (180 μm×20 mm, 5 μm SymmetryC18, from Waters) and an analytical column (100 μm×100 mm, 1.7 μm BEH130C18, from Waters). […]

GST-XIAP = target: T3, GST-XIAP (Homo sapiens, UniProt P98170); assay: In vitro GST pull down; type: binding; details: recombinant proteins
T3 construct: made in house
T3 sequence (P98170 whole entry): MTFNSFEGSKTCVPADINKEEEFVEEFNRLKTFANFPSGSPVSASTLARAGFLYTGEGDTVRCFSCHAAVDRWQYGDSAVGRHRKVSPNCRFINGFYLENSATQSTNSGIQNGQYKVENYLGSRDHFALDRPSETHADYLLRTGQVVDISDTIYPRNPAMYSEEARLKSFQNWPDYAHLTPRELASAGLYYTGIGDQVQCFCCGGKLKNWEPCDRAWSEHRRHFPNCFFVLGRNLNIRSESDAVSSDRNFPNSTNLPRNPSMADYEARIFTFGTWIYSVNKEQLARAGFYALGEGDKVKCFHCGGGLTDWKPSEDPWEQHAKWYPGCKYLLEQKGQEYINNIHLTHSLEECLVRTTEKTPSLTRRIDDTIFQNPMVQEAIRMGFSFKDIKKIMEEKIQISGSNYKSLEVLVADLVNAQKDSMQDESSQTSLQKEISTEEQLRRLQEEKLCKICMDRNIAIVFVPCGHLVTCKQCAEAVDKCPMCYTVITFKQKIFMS
Source text: (§2) FIG. 12 illustrates the identification of the proteolytic form of PGAM5 as an XIAP and cIAP1 substrate in vitro. […] Overall, 15 unique peptides from PGAM5 were recovered and account for 43% of the entire protein sequence. (B) An example of LC-MS/MS spectrum from endogenous PGAM5 N-terminal peptide after subtiligase labeling and positive enrichment. A non-natural amino acid, 2-aminobutyric acid (Abu), is a designed tag showing characteristic labeling by subtiligase. (C) PGAM5 is cleaved into a truncated form in cells. Jurkat cells were transiently transfected with C-terminal Myc tagged full length PGAM5 or PGAM5 (Δ2-24). […] (D) N-terminal amino acid sequence alignment of PGAM5(Δ24) and other known evolutionarily conserved IBM sequences. Reaper, Hid, and Grim are Drosophila proteins that bind DIAP1, the Drosophila IAP. Amino acids are colored according to their chemical properties. (E) XIAP binds PGAM5(Δ24) but not the full length PGAM5. Recombinant GST fused XIAP, PGAM5(FL), and PGAM5(Δ24) were used for in vitro GST pull down experiments. (F) PGAM5(Δ24) binds to XIAP and cIAP1 independent of the RING domain. […] The resins were washed and proteins were eluted and analyzed with SDSPAGE and coomassie blue staining. […] The ubiquitination assay was performed in vitro and PGAM5 is detected with an anti-His antibody.

cIAP1 [3] = target: T4, cIAP1 (Homo sapiens, UniProt Q13490); assay: Co-immunoprecipitation in HEK293 cells; type: cell-based; details: Flag-cIAP1 co-transfection, anti-Myc IP
T4 construct: expressed in transfected cells; host or cells: HEK293
T4 sequence (Q13490 whole entry): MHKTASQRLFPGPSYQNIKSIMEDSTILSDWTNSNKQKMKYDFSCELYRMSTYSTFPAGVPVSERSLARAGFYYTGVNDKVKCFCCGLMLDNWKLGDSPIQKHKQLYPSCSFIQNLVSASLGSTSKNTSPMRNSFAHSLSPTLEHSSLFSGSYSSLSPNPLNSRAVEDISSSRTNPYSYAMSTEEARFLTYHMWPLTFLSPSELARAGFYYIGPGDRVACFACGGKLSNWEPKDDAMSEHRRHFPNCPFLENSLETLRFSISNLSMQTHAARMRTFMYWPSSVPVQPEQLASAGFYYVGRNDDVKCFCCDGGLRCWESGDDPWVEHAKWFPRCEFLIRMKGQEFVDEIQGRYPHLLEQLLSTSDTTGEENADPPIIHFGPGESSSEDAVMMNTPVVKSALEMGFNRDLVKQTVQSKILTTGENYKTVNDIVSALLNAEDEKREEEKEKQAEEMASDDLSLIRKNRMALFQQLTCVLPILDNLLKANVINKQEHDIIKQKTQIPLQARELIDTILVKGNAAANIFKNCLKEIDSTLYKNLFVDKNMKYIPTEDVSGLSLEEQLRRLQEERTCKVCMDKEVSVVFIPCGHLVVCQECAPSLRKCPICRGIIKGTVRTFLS
Description: FIG. 13 illustrates functional studies of PGAM5 in cells. (A) PGAM5(Δ24) binds XIAP and cIAP1 in vivo. On the left, HEK293 cells were cotransfected with Flag-cIAP1 and PGAM5(FL)-Myc or PGAM5(Δ24)-Myc. Total cell lysates were analyzed by immune-blotting with anti-Flag and anti-Myc antibodies (bottom two panels). Anti-Myc immune-precipitates (IP) were subjected to immunoblot analysis using anti-Myc and anti-Flag antibodies (top two panels). On the right, PGAM5(Δ24)-Myc was transiently expressed in HEK293 cells. 36 hours after transfection, cells were lysed and subjected for Immuno-precipitation with either anti-Myc antibody or an isotype control antibody (mouse IgG). Proteins in the whole cell lysate (bottom three panels) and proteins that bind to the antibody conjugated sepharose beads (top three panels) were assayed with immunoblotting. An asterisk indicates the position of the immunoglobulin heavy chain. (B) XIAP and cIAP1 stimulate PGAM5(Δ24) ubiquitination in vivo. […] 24 hours after transfection, cell viability was measured by Annexin V staining. […] Error bars represent SEM calculated from triplicate experiments. […] Cell viability is then immediately measured by CellTiter-Glo luminescent assay. […] PGAM5 levels are analyzed with anti-Myc immune-blotting before STS treatment. Error bars represent SEM calculated from triplicate samples. […]

XIAP [4] = target: XIAP (Homo sapiens, UniProt P98170); assay: In vitro PGAM5 ubiquitination assay with XIAP; type: biochemical; details: 50 nM UBE1, 200 nM UbcH5b, 700 nM XIAP, 1.5 μM PGAM5-His6
XIAP (Homo sapiens, UniProt P98170), sequence (P98170 whole entry): as the sequence (P98170 whole entry) above
Source text: as §2, with “antibody. […]” for “antibody.”

cIAP1 [5] = target: T4, cIAP1; assay: In vitro PGAM5 ubiquitination assay with cIAP1; type: biochemical; details: 50 nM UBE1, 200 nM UbcH5b, 700 nM cIAP1, 1.5 μM PGAM5-His6
Source text: as §2, with “antibody. […]” for “antibody.”

L/H (Light/Heavy ratio) (cIAP1 [1]): 39.2
L/H (Light/Heavy ratio) (XIAP [2]): 21.4
B1: Serine protease HtrA2, mitochondrial: known IAP substrate (protein, UniProt O43464 134-458, looked up)
Serine protease HTRA2, …: AVPSPPPASPRSQYNFIADVVEKTAPAVVYIEILDRHPFLGREVPISNGSGFVVAADGLIVTNAHVVADRRRVRVRLLSGDTYEAVVTAVDPVADIATLRIQTKEPLPTLPLGRSADVRQGEFVVAMGSPFALQNTITSGIVSSAQRPARDLGLPQTNVEYIQTDAAIDFGNSGGPLVNLDGEVIGVNTMKVTAGISFAIPSDRLREFLHRGEKKNSSSGISGSQRRYIGVMMLTLSPSILAELQLREPSFPDVQHGVLIHKVILGSPAHRAGLRPGDVILAIGEQMVQNAEDVYEAVRTQSQLAVQIRRGRETLTLYVTPEVTE

binding to XIAP (pull down) (GST-XIAP): pulled down
binding to cellular cIAP1 (cIAP1 [3]): specifically binds
ubiquitination by XIAP (XIAP [4]): ubiquitinates
ubiquitination by cIAP1 (cIAP1 [5]): ubiquitinates
B2: PGAM5(Δ24): cleaved form of PGAM5 lacking the first 24 residues, neo-IBM sequence starting with Ala25 (protein, UniProt Q96HS1 25-289, looked up, fragment)
chain: AVAVGKPRAGGDAEPRPAEPPAWAGGARPGPGVWDPNWDRREPLSLINVRKRNVESGEEELASKLDHYKAKATRHIFLIRHSQYHVDGSLEKDRTLTPLGREQAELTGLRLASLGLKFNKIVHSSMTRAIETTDIISRHLPGVCKVSTDLLREGAPIEPDPPVSHWKPEAVQYYEDGARIEAAFRNYIHRADARQEEDSYEIFICHANVIRYIVCRALQFPPEGWLRLSLNNGSITHLVIRPNGRVALRTLGDTGFMPPDKITRS
